The target of test [1] is Pin1 (HA-Pin1, GST-Pin1) (UniProt Q13526). The test is described as follows: co-IP of HA-Pin1 with Myc-Kv4.2. Conditions: reference: wild type; sites T607.
For test [2] the target is unchanged. The test is described as follows: Affi-Gel peptide pulldown from lysate.

In the case of “Kv4.2 (Myc-Kv4.2; synthetic C-terminal peptides) (from UniProt Q9NZV8) T607A”, in the test with Pin1 (HA-Pin1, GST-Pin1) [1], the “binding against the reference” value is “weaker”.
For “Kv4.2 (Myc-Kv4.2; synthetic C-terminal peptides) (from UniProt Q9NZV8) pT602 peptide”, the “binding against the reference” value with Pin1 (HA-Pin1, GST-Pin1) [2] (reference: non-phospho peptide, sites T602) is “stronger”.
Turning to “Kv4.2 (Myc-Kv4.2; synthetic C-terminal peptides) (from UniProt Q9NZV8) pT602, pT607 peptide”, the “binding against the reference” value with Pin1 (HA-Pin1, GST-Pin1) [2] (reference: non-phospho peptide, sites T602,T607) is given as “stronger”; in the test with Pin1 (HA-Pin1, GST-Pin1) [2] (reference: pT607 peptide, sites T602), “stronger”.
“Kv4.2 (Myc-Kv4.2; synthetic C-terminal peptides) (from UniProt Q9NZV8) pT607 peptide”: the “binding against the reference” value with Pin1 (HA-Pin1, GST-Pin1) [2] (reference: non-phospho peptide, sites T607) is on record as “stronger”.

The record behind these values is paper PMC7099064.
